US20200317768A1 (published 2020)

T1: human FcγRIIaR extracellular domain with C-terminal His-tag (human, UniProt P12318 34-217)
T1 construct: also called human FcgRIIaR; FcγRIIa (type R)
T1 chain: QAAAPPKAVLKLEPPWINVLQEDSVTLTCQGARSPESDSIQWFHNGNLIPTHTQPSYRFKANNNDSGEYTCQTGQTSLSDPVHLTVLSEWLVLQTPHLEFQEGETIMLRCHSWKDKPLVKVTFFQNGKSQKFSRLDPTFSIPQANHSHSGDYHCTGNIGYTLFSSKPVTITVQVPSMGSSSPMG

T2: cynomolgus monkey FcγRIIa2 extracellular domain with C-terminal His-tag (cynomolgus monkey)
T2 construct: also called cyno FcgRIIa2; cynoFcγRIIa2
T2 chain: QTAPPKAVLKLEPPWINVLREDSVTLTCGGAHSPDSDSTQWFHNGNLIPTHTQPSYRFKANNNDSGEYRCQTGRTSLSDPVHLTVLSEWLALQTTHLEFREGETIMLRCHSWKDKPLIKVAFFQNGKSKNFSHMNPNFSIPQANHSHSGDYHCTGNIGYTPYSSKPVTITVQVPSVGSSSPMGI

T3: human FcγRIIaH extracellular domain with C-terminal His-tag (human, UniProt P12318 34-217)
T3 construct: also called human FcgRIIaH; FcγRIIa (type H)
T3 sequence: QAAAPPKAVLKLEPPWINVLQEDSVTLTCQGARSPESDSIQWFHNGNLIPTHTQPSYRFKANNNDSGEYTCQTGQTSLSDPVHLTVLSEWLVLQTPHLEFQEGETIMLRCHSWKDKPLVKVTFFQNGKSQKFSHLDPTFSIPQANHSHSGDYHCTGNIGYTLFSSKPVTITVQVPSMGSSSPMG

T4: cynomolgus monkey FcγRIIa1 extracellular domain with C-terminal His-tag (cynomolgus monkey)
T4 construct: also called cyno FcgRIIa1; cynoFcγRIIa1
T4 chain: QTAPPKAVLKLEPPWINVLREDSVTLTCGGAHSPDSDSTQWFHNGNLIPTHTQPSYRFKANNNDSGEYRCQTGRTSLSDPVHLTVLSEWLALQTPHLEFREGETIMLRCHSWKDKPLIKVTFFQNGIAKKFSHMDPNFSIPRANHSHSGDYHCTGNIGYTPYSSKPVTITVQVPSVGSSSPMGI

T5: cynomolgus monkey FcγRIIIaS extracellular domain with C-terminal His-tag (cynomolgus monkey, UniProt Q8SPW2 21-206 at identity 1.00))
T5 construct: also called cyno FcgRIIIaS; cynoFcγRIIIaS
T5 chain: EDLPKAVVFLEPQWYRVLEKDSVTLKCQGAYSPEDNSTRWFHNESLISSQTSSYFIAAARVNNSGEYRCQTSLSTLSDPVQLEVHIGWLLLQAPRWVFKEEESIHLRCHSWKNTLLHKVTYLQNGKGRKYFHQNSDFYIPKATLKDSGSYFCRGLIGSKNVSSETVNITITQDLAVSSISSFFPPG

T6: human FcγRIIb extracellular domain with C-terminal His-tag (human, UniProt P31994 43-217)
T6 construct: also called human FcgRIIb
T6 sequence: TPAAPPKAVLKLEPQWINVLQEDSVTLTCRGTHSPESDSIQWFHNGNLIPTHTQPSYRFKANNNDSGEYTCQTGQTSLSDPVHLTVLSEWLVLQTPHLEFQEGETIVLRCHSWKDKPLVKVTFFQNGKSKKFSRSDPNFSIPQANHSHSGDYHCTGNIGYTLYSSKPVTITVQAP

T7: cynomolgus monkey FcγRIIb extracellular domain with C-terminal His-tag (cynomolgus monkey)
T7 construct: also called cyno FcgRIIb; cynoFcγRIIb
T7 chain: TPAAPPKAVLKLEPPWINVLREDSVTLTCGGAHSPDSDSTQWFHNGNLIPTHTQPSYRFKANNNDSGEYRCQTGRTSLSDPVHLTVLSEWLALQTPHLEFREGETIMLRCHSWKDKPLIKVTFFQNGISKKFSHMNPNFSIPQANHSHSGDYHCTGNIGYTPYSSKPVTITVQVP


Key:
Assay in all cases: SPR (BIACORE); KD of SG1 / KD of variant;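 note: relative to parent M103205H795-SG1 carrying the SG1 human heavy chain constant region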
[1] = target: T8, human FcγRIIIaV extracellular domain with C-terminal His-tag (human, UniProt P08637 17-208)
T8 construct: also called human FcgRIIIaV
T8 sequence (P08637 17-208 F176V): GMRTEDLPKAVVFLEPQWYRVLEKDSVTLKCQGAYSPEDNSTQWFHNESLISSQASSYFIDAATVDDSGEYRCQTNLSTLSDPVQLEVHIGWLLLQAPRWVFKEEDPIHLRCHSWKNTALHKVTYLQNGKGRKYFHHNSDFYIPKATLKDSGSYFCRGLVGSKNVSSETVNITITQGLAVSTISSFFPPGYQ

[2] = target: T1, human FcγRIIaR extracellular domain …
[3] = target: T2, cynomolgus monkey FcγRIIa2 …
[4] = target: T3, human FcγRIIaH extracellular domain …
[5] = target: T4, cynomolgus monkey FcγRIIa1 …
[6] = target: T5, cynomolgus monkey FcγRIIIaS …
[7] = target: T6, human FcγRIIb extracellular domain with …
[8] = target: T7, cynomolgus monkey FcγRIIb extracellular …

Row | Binder | KD fold (SG1 = 1) [1] [fold] | KD fold (SG1 = 1) [2] [fold] | KD fold (SG1 = 1) [3] [fold] | KD fold (SG1 = 1) [4] [fold] | KD fold (SG1 = 1) [5] [fold] | KD fold (SG1 = 1) [6] [fold] | KD fold (SG1 = 1) [7] [fold] | KD fold (SG1 = 1) [8] [fold]
1 | M103205H795-MY209/M103202L889-SK1 (antibody, human IgG1, kappa, Substitutions introduced into M103205H795-SG1, expressed with M103202L889-SK1 as light chain; EU numbering) heavy: QVTLKESGPVLVKPTETLTLTCTVSGIDLSHDDISWVRQAPGKGLEWVGIISYAGSTYYASWAKGRLTISKDTSKNQVVLTMTNMDPVDTATYYCARGVPAYSHGGDLWGQGTLVTVSSASTKGPSVFPLAPSSKSTSGGTAALGCLVKDYFPEPVTVSWNSGALTSGVHTFPAVLQSSGLYSLSSVVTVPSSSLGTQTYICNVNHKPSNTKVDKKVEPKSCDKTHTCPPCPAPELLNGPSVFLFPPKPKDTLMISRTPEVTCVVVDVSDEDPEVKFNWYVDGVEVHNAKTKPREELYNSTYRVVSVLTVLHQDWLNGKEYKCKVSNTALPKPIEKTISKAKGQPREPQVYTLPPSREEMTKNQVSLTCLVKGFYPSDIAVEWESNGQPENNYKTTPPVLDSDGSFFLYSKLTVDKSRWQQGNVFSCSVMHEALHNHYTQKSLSLSP light: DIVMTQSPATLSLSPGERATLSCTSSQSVYHANWLSWFQQKPGQPPKLLIYWASTLAYGVPSRFSGSGSGTDFTLTISSLQPEDAATYYCAGGYGGGRYAFGQGTKVEIKRTVAAPSVFIFPPSDEQLKSGTASVVCLLNNFYPREAKVQWKVDNALQSGNSQESVTEQDSKDSTYSLSSTLTLSKADYEKHKVYACEVTHQGLSSPVTKSFNRGEC | 0.06 | 1.3 | 7.4 | 1.2 | 5.1 | 0.16 | 9.2 | 9.5
2 | M103205H795-MY341/M103202L889-SK1 (antibody, human IgG1, kappa, Substitutions introduced into M103205H795-SG1, expressed with M103202L889-SK1 as light chain; EU numbering) heavy: QVTLKESGPVLVKPTETLTLTCTVSGIDLSHDDISWVRQAPGKGLEWVGIISYAGSTYYASWAKGRLTISKDTSKNQVVLTMTNMDPVDTATYYCARGVPAYSHGGDLWGQGTLVTVSSASTKGPSVFPLAPSSKSTSGGTAALGCLVKDYFPEPVTVSWNSGALTSGVHTFPAVLQSSGLYSLSSVVTVPSSSLGTQTYICNVNHKPSNTKVDKKVEPKSCDKTHTCPPCPAPELLLGPSVFLFPPKPKDTLMISRTPEVTCVVVDVSDEDPEVKFNWYVDGVEVHNAKTKPREELYNSTYRVVSVLTVLHQDWLNGKEYKCKVSNTALPKPIEKTISKAKGQPREPQVYTLPPSREEMTKNQVSLTCLVKGFYPSDIAVEWESNGQPENNYKTTPKVLDSDGSFFLYSKLTVDKSRWQQGNVFSCSVMHEALHNHYTQKSLSLSP light: DIVMTQSPATLSLSPGERATLSCTSSQSVYHANWLSWFQQKPGQPPKLLIYWASTLAYGVPSRFSGSGSGTDFTLTISSLQPEDAATYYCAGGYGGGRYAFGQGTKVEIKRTVAAPSVFIFPPSDEQLKSGTASVVCLLNNFYPREAKVQWKVDNALQSGNSQESVTEQDSKDSTYSLSSTLTLSKADYEKHKVYACEVTHQGLSSPVTKSFNRGEC | 0.12 | 2.6 | 1.8 | 2.7 | 1.2 | 0.38 | 2.6 | 3

Other lines, results leading:

Row | KD fold (SG1 = 1) [1] [fold] | KD fold (SG1 = 1) [2] [fold] | KD fold (SG1 = 1) [3] [fold] | KD fold (SG1 = 1) [4] [fold] | KD fold (SG1 = 1) [5] [fold] | KD fold (SG1 = 1) [6] [fold] | KD fold (SG1 = 1) [7] [fold] | KD fold (SG1 = 1) [8] [fold] | Binder
3 | 0.14 | 1.1 | 3.2 | 4.9 | 2.3 | 0.16 | 2.6 | 4.3 | M103205H795-MY283/M103202L889-SK1 (antibody, human IgG1, kappa, Substitutions introduced into M103205H795-SG1, expressed with M103202L889-SK1 as light chain; EU numbering) heavy: QVTLKESGPVLVKPTETLTLTCTVSGIDLSHDDISWVRQAPGKGLEWVGIISYAGSTYYASWAKGRLTISKDTSKNQVVLTMTNMDPVDTATYYCARGVPAYSHGGDLWGQGTLVTVSSASTKGPSVFPLAPSSKSTSGGTAALGCLVKDYFPEPVTVSWNSGALTSGVHTFPAVLQSSGLYSLSSVVTVPSSSLGTQTYICNVNHKPSNTKVDKKVEPKSCDKTHTCPPCPAPELLTGPSVFLFPPKPKDTLMISRTPEVTCVVVDVSDEDPEVKFNWYVDGVEVHNAKTKPREELYNSTYRVVSVLTVLHQDWLNGKEYKCKVSNKALPKPIEKTISKAKGQPREPQVYTLPPSREEMTKNQVSLTCLVKGFYPSDIAVEWESNGQPENNYKTTPPVLDSDGSFFLYSKLTVDKSRWQQGNVFSCSVMHEALHNHYTQKSLSLSP light: DIVMTQSPATLSLSPGERATLSCTSSQSVYHANWLSWFQQKPGQPPKLLIYWASTLAYGVPSRFSGSGSGTDFTLTISSLQPEDAATYYCAGGYGGGRYAFGQGTKVEIKRTVAAPSVFIFPPSDEQLKSGTASVVCLLNNFYPREAKVQWKVDNALQSGNSQESVTEQDSKDSTYSLSSTLTLSKADYEKHKVYACEVTHQGLSSPVTKSFNRGEC
4 | 0.05 | 1.3 | 1 | 2.2 | 0.7 | 0.16 | 1.4 | 1.6 | M103205H795-MY340/M103202L889-SK1 (antibody, human IgG1, kappa, Substitutions introduced into M103205H795-SG1, expressed with M103202L889-SK1 as light chain; EU numbering) heavy: QVTLKESGPVLVKPTETLTLTCTVSGIDLSHDDISWVRQAPGKGLEWVGIISYAGSTYYASWAKGRLTISKDTSKNQVVLTMTNMDPVDTATYYCARGVPAYSHGGDLWGQGTLVTVSSASTKGPSVFPLAPSSKSTSGGTAALGCLVKDYFPEPVTVSWNSGALTSGVHTFPAVLQSSGLYSLSSVVTVPSSSLGTQTYICNVNHKPSNTKVDKKVEPKSCDKTHTCPPCPAPELLLGPSVFLFPPKPKDTLMISRTPEVTCVVVDVSDEDPEVKFNWYVDGVEVHNAKTKPREELYNSTYRVVSVLTVLHQDWLNGKEYKCKVSNKALPKPIEKTISKAKGQPREPQVYTLPPSREEMTKNQVSLTCLVKGFYPSDIAVEWESNGQPENNYKTTPKVLDSDGSFFLYSKLTVDKSRWQQGNVFSCSVMHEALHNHYTQKSLSLSP light: DIVMTQSPATLSLSPGERATLSCTSSQSVYHANWLSWFQQKPGQPPKLLIYWASTLAYGVPSRFSGSGSGTDFTLTISSLQPEDAATYYCAGGYGGGRYAFGQGTKVEIKRTVAAPSVFIFPPSDEQLKSGTASVVCLLNNFYPREAKVQWKVDNALQSGNSQESVTEQDSKDSTYSLSSTLTLSKADYEKHKVYACEVTHQGLSSPVTKSFNRGEC
5 | 0.14 | 1.7 | 1.7 | 1.7 | 0.9 | 0.47 | 1.5 | 2.4 | M103205H795-MY339/M103202L889-SK1 (antibody, human IgG1, kappa, Substitutions introduced into M103205H795-SG1, expressed with M103202L889-SK1 as light chain; EU numbering) heavy: QVTLKESGPVLVKPTETLTLTCTVSGIDLSHDDISWVRQAPGKGLEWVGIISYAGSTYYASWAKGRLTISKDTSKNQVVLTMTNMDPVDTATYYCARGVPAYSHGGDLWGQGTLVTVSSASTKGPSVFPLAPSSKSTSGGTAALGCLVKDYFPEPVTVSWNSGALTSGVHTFPAVLQSSGLYSLSSVVTVPSSSLGTQTYICNVNHKPSNTKVDKKVEPKSCDKTHTCPPCPAPELLLGPSVFLFPPKPKDTLMISRTPEVTCVVVDVSDEDPEVKFNWYVDGVEVHNAKTKPREEQYNSTYRVVSVLTVLHQDWLNGKEYKCKVSNTALPKPIEKTISKAKGQPREPQVYTLPPSREEMTKNQVSLTCLVKGFYPSDIAVEWESNGQPENNYKTTPKVLDSDGSFFLYSKLTVDKSRWQQGNVFSCSVMHEALHNHYTQKSLSLSP light: DIVMTQSPATLSLSPGERATLSCTSSQSVYHANWLSWFQQKPGQPPKLLIYWASTLAYGVPSRFSGSGSGTDFTLTISSLQPEDAATYYCAGGYGGGRYAFGQGTKVEIKRTVAAPSVFIFPPSDEQLKSGTASVVCLLNNFYPREAKVQWKVDNALQSGNSQESVTEQDSKDSTYSLSSTLTLSKADYEKHKVYACEVTHQGLSSPVTKSFNRGEC
